Tests used:
AP2M1 160-435 = AP2M1 160-435 (UniProt Q96CW1); assay: isothermal titration calorimetry; details: reference: unphosphorylated peptide YMPMS; sites S616
[1] = molecular target: AP2M1 (residues 160-435) (human) (UniProt Q96CW1); assay: ITC

Chain of UniProt Q96CW1 (Q96CW1 160-435): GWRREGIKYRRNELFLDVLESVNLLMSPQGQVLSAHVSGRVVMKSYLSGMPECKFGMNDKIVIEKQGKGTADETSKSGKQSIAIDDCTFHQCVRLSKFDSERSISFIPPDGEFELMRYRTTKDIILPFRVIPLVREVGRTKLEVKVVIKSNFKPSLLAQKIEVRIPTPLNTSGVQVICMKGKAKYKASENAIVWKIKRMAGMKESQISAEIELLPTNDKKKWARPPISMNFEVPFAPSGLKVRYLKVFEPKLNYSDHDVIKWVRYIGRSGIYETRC

| Substance | KD (AP2M1 160-435) | Kd [1] [µM] |
| --- | --- | --- |
| IRS1 607-620 (from UniProt P35568) YMPMpS peptide (pS-IRS1) | stronger; reference 2.03 µM | – |
| IRS1 peptide YMPMS (unphosphorylated) | – | 2.03 |
| IRS1 peptide YMPMpS (phospho-S616), pS-IRS1 | – | 0.28 |

Reference: article doi:10.1101/419911
